A short description of this data set: label from the status in PepcDB records.
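Further: failed if final PepcDB status was selected cloned or expressed and not failed if soluble or beyond.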

On to “MRPHRAFSPGLTGVLPLRETRHLVEVLRARVGDRFTVFDGEREALAEVVDLGPPLRYRVLEERRPEREVGVEVVLYVALLKGDKLAEVVRAATELGATRIQPLVTRHSVPKEMGEGKLRRLRAVALEAAKQSGRVVVPEVLPPIPLKAVPQVAQGLVAHVGATARVREVLDPEKPLALAVGPEGGFAEEEVALLEARGFTPVSLGRRILRAETAALALLALCTAGEGR”, for which the protein production entry is on record as “not failed”.
Under “MRPRLGLLDASVLSFAVLPTDLDFNRHMTNARYLSLMDLGRLDLILRSGMWRLVLRQSLQPVIGGALVRFRHALRPFQPFRLTTRVLAWDARWLFIEHRVETLDGKPACTAVVRAAFVASTGMLPTADLLTRLGYGGAAPDVPAWIAPWLQADLACQPLEHHHHHH” stands “failed”; under “MRPVPPPPDRSGRCFASPRRSDLSPQAGRGEEPLAAPIEPSLPPSRPIPGRPAPPGTFAMDWTWYLFRFDGRINRALLWQALLIVALLAGLLEIVGQVIGILGGTRSTLKLAIDLDFDFGLDDLFKLVDPRASRSLASADRATSILKASGMALFFWIYLATTIKRLHDRDRSGWWIVPFFVVPGLFSQFADLLPNSNWMLPFSLAVSILWLWGLVEMFCRPGTSGHNRFGPDPLADFEDSSAASPAQGWDQSREIEIVPPNASPPGGMHVKRGA”, “failed”.
Under “MRQDAEVIMKLTDADNAADGIFFPALEQNMMGAVLINENDEVMFFNPAAEKLWGYKREEVIGNNIDMLIPRDLRPAHPEYIRHNREGGKARVEGMSRELQLEKKDGSKIWTRFALSKVSAEGKVYYLALVRDASVEMAQKEQTRQLIIAVDHLDRPVIVLDPERHIVQCNRAFTEMFGYCISEASGMQPDTLLNIPEFPADNRIRLQQLLWKTARDQDEFLLLTRTGEKIWIKASISPVYDVLAHLQNLVMTFSDITEERQIRQLEGNILAAMCSSPPFHEMGEIICRNIESVLNESHVSLFALRNGMPIHWASSSHGAEIQNAQSWSATIRQRDGAPAGILQIKTSSGAETSAFIERVADISQHMAALALEQEKSRQHIEQLIQFDPMTGLPNRNNLHNYLDDLVDKAVSPVVYLIGVDHIQDVIDSLGYAWADQALLEVVNRFREKLKPDQYLCRIEGTQFVLVSLENDVSNITQIADELRNVVSKPIMIDDKPFPLTLSIGISYDLGKNRDYLLSTAHNAMDYIRKNGGNGWQFFSPAMNEMVKERLVLGAALKEAISNNQLKLVYQPQIFAETGELYGIEALARWHDPLHGHVPPSRFIPLAEEIGEIENIGRWVIAEACRQLAEWRSQNIHIPALSVNLSALHFRSNQLPNQVSDAMHAWGIDGHQLTVEITESMMMEHDTEIFKRIQILRDMGVGLSVDDFGTGFSGLSRLVSLPVTEIKIDKSFVDRCLTEKRILALLEAITSIGQSLNLTVVAEGVETKEQFEMLRKIHCRVIQGYFFSRPLPAEEIPGWMSSVLPLKI” stands “failed”; under “MRQIGNRRVAPLAILAAVLMGGPTNASTGEFKVAYLYNLSDFTGTIPYSLAKIALDATARETYVISGETVKVFNNSGMEVYRFTNTMESGIVYDAAIDEQGRILVLAYNNGTPSLLLCNYRAEPIKPIEFKGLPEKLAAFKPNRLMLRDGKICLVSLGSMMVVMLDPEGNYVKHIDLAEASSVTEEDRLNTGIGAVAFDSDGSVLFTSPVTGKVFRISANGTVESFGKRGSAPGKFGVPTGIAVDGLGNYYISDKLRCAILVFDRQFKFIYEFGGRGDAPGSLVGPDDLAIDAEGKLYVGQLGNRGVSVFKVTHD”, “failed”; under “MRQSTLHTRLSTGPGGSMRSSIEIFNIRTRKMRVVWQTPELFEAPNWSPDGKYLLLNSEGLLYRLSLAGDPSPEKVDTGFATICNNDHGISPDGALYAISDKVEFGKSAIYLLPSTGGTPRLMTKNLPSYWHGWSPDGKSFTYCGIRDQVFDIYSMDIDSGVETRLTHGEGRNDGPDYSPDGRWIYFNSSRTGQMQIWRVRVDGSSVERITDSAYGDWFPHPSPSGDKVVFVSYDADVFDHPRDLDVRVQLMDMDGGNVETLFDLFGGQGTMNSPNWSPDGDEFAYVRYFPVE”, “not failed”.
As to “MRQTFIARKISFISLIHFRDEYMSPQNNHLQRPPAAVLYADELAKLKQNDNAPCPPGWQLSLPAARAFILGDEAQNISRKVVISPSAVERMLVTLATGRGLMLVGEPGTAKSLLSELLATAISGDAGLTIQGGASTTEDQIKYGWNYALLINHGPSTEALVPAPLYQGMRDGKIVRFEEITRTPLEVQDCLLGMLSDRVMTGPELTGEASQLYAREGFNIIATANTRDRGVNEMSAALKRRFDFETVFPIMDFAQELELVASASARLLAHSGIPHKVPDAVLELLVRTFRDLRANGEKKTSMDTLTAIMSTAEAVNVAHAVGVRAWFLANRAGEPADLVECIAGTIVKDNEEDRARLRRYFEQRVATHKEAHWQAYYQARHRLP”, the protein production entry was “failed”.
Under “MRRENTKSNIDFKSIFDSLPDLYLLLDRDFNIVGVSDAYLQATMVSRKQILGKNVFDAFPDNPNDPKATGAKNLYASLLRVLKNKSADTMAIQKYDIQRPADRGGGFEERYWSPINTPVLGADQEVEYIIHRVEDVT” stands “failed”; under “MRRGRGKGKKQNASAREDRGSGDEEKIPAYRRRGRPQKPMKDDFEEEEEEDDEEMVEKMEVEDEDEEIDDGSVTSKDLKERKRKMSNGSNTDLTEEENGLGSKPNTDDSTRSTSIGFRQNGSRRKSKPRRAAEAVVECNGV”, “failed”; under “MRRHRLSGQITLSMSVVVAIAVLMVFVGTFIFYSIYMTWFPPPPGPPPLLPEAPDFILIAIFLLLGLAIAIHAALRLTRRILAPLNSLAEGARKIAAGDLTARAVAGDRSLGETAQLVDDFNAMARRLEDAAESMTSWNAAIAHELRTPLTILRGRLQGLTDGVFEPSDELFRSLLVQVENLSRLVDDLRVVTLSDSQRLDMRVEPTDLANEVAQAVDAMRPALEGAGFSIRMTTEPVTLPCDGPRIRQALLALLENARRYATPGMIVIRMTLETFEVAIAVEDEGPGLSAEFAARAFDAFVRAEPSRSRQFGGSGLGLSVVRAIAEAHGGHARYSTSEKGGSVFEIVFPIDGASADSNAASCAPKV”, “failed”.
Under “MRRKERRESMKKHRQLLALFICLVMSVSLLTGYSETKAATEEPTQSAEQDATQETAETREITDMAGRKVTVPTAENIESVFSAGPVAAIFLYMVVPDKLLGWNYELNDVEKSIILDKYQDLPNFGMGDAVNYEAVIAANPTIAINSGKINDAMVSDCDALSESLGIPVVAVDNELNNSAEAFRFMGELLGVEDHAEELAQYAEQVFTDINVLSDIPEEKKVSVYFGNGEDSLETAPRGSQHAQILDAINAVNVADLELGDGSRVQISAEQLLAWDPDVIVVNGEPKADKSGSSAAEDILSNPDYASLKAVQDQKVYGTPNAPFSWVDRPAGPNRLIGMRWFSALIYPEYIKCDINEEIHKFFDLFYHVDLSDEQLENVLKGTL” stands “failed”; under “MRRNRVDVITLGCSKNLVDSEVLMRQFLSNGYTVHHDPASVCGEIVVVNTCGFIGDAQEESVNTILEMVEAKKAGRIGSLYVMGCLSERFREDLKKEIPEVDAYYGKFDWKQLISHLGKSYYAEAENRRKLTTPRHYAYLKISEGCDRSCSYCAIPIITGRHRSRPMEDLVEEVRMLVKHGTREFQLIAQDLTFYGLDLYGANRLAELTARLSDIKGVEWLRLHYAYPAQFPLDLLPVMRERPNVCKYLDMALQHISDPMLGRMRRRITKAETYELIERIRTEVPGIHLRTTLMTGHPGETERDFEELLQFVRDIRFERLGAFTYSHESGTYCDKNYQDDIPESVKQERLGELMAVQERISAAHNEAKIGSRLHVVIDRAEDGFYVGRTEYDSPEVDPEVLIPFVSGQELNPGRFYMAEVTGAEPFDLYARIVDLEHHHHHH”, “failed”.
For the sequence “MRRSPCNQGLSNLMQLFTYLAPAGQALLPYLSEISIALVACTLVMLGGEINAFLRRALRNQHFLVRTLAFIFINAFGYGLIIVKASPYVARTLAQLESGMMLTLIVSCFVVIGLWAQRNHQI”, the protein production entry is “failed”.
Consider “MRRSPWRIAYTTKPADTAVPARHPSMAHIFFAASIQRHIATPEREVDARTLGEALEAVFAAQPRLRGYILDDQGALRKHLAVFVDGQPVRDRQHLSDALGENSRVYVIQALTGG”, for which the protein production entry was “failed”.
Turning to “MRRSRSSAAAKLRGQKRSGASGASAAPAASAAAALAPSATRTRRSASQAGSKSQAVEKPPSEKPRLRRSSPRAQEEGPGEPPPPELALLPPPPPPPPTPATPTSSASNLDLGEQRERWETFQKRQKLTSEGAAKLLLDTFEYQGLVKHTGGCHCGAVRFEVWASADLHIFDCNCSICKKKQNRHFIVPASRFKLLKGAEHITTYTFNTHKAQHTFCKRCGVQSFYTPRSNPGGFGIAPHCLDEGTVRSMVTEEFNGSDWEKAMKEHKTIKNMSKE”, the protein production entry is “failed”.
In the case of “MRRSSSKKKSGQSTESVTTDLFRSASSKASNKEMDRIDHLFNQYANKSSSLIDPEGIEELCSNLEVSHTDIRILMLAWKMKAEKQGYFTHISFPDMGDYNPELAWPLILDNFVEWIQEKQA”, the protein production entry is on record as “failed”.
Under “MRSFSKFAQIVFFGLLIVSAIFVVSCGGSGNAVLNKDKPLVFFNRQPSDPTTGEIDMTSMNWNDKTYYVGFDAAGGGAVQGKLITDFLVSAETSLDRNGDGIIGYVLCIGDVGHNDSKARTEGIRKALGTWAGSTDPGKTKQGSITIAGKTFDVVELEGKAMTGTDGSTWNANAATEAMGGWATKFADQIDMVVSNNDGMAMGCLQASNYPAGVPIFGYDANADAIEAVGKGLLTGTVSQNVDAQATATLQVLRNLLDGLTGTDVYTKGITAEDSYGNKISAPVQYWADVKAVMAANSGVTKANYENYLGGTRDAGIKQTNAPKKKVLLTIYNSGDNFLSSSYLPALKYYAPLLNIELTIVQGDGQNESSCLDKFTNLNNFDAFAVNMVKTNSGSNYTDKLKY” stands “failed”; under “MRSGFRRCCPAIQRFKKVQRILLIVLFLNLAVAFAKIIYGTLTSTLSMTADGYHSLFDGVSNIVGLVGSFIAARPPDKEHPYGHQKYETIASIFIALLLLYVGVEIFRHALDRFLIRSVPEVTAISFLVIIGTMCINYLVTRYEYRQGLALRSQVLIADSLHTKSDIYVSLSVILSLAAVKLGFPLLDPLIAVLISFLIFRAGFRIMKESSKVLLDMSRLEEDEICNLVLGVEGVLGCHKIRTRGGMGDIRIDMHVLVQADLTLEEAHLISHRVSKMLKAEYNDVTDVVVHLEPALPQGSYSKKTT”, “failed”; under “MRSHNLFGDMCEAFMTKYVMTELRPKTQTLYKSTFNKYVTPYKNIDIERYKYTDWIAYFDWVKKESSSANAGSVLKRFKAVANWAKARGQIKHSHLIDIPIKLEHHHHHH”, “failed”.
Take “MRSIAMQAADLYVLQTAQSWLDAGQAAVLLTVARTWGSSPRPPGAMMAIRADGAVAGSVSGGCIEDDLIDQIRQRGIAALCPGARPALATYGVDGEQARRFGLPCGGTLQLVLEPLGAHSRLADLLARLRAHQTVRRSVRLADGAVTLEPAAADAEPRLDGAGFASVLGPRHRLLVVGAGQLSRYLCEMAIALDFDVTVSDPRQEYRAGWQVEGVALTTAMPDDMVIAARPDARTAVIALTHDPKLDDLALIDALQTPAFYVGALGSRANHARRVARLREHFGLTPAQLARLRGPAGIYIGSRTPPEIALSIMAEIVAGKNGAPLPPAASVAAGKARQPGGAGVIQAGLCATL”: the protein production result is recorded as “failed”.

The values above are taken from a protein production outcome set (Wang et al. 2014).
